Tests used:
Settings in all cases: remark: other sources report otherwise
s127H1-t2-cl18long [1] = test: SEC-MALS of trimer with Fab fragments; value in brackets is the theoretical one
[2] = target: UFV150134 (influenza A virus H1 A/California/07/2009)
[3] = target: UFV150135 (influenza A virus H1 A/California/07/2009)
[4] = target: UFV150124 (influenza A virus H1 A/Brisbane/59/2007)
[5] = target: UFV150125 (influenza A virus H1 A/Brisbane/59/2007)
s127H1-t2-cl18long [6] = test: Kd app from steady state Octet (biolayer interferometry), antibody immobilized

Binder	Mw of trimer protein complex with CRF6261 (s127H1-t2-cl18long [1]) [kDa]	CR6261 binding AlphaLISA (counts) [2] [counts]	CR6261 binding AlphaLISA (counts) [3] [counts]	CR6261 binding AlphaLISA (counts) [4] [counts]	CR6261 binding AlphaLISA (counts) [5] [counts]	Kd (s127H1-t2-cl18long [6]) [nM]
Fab fragment of CR6261 (Fab, V domains shown) VH: EVQLVESGAEVKKPGSSVKVSCKASGGPFRSYAISWVRQAPGQGPEWMGGIIPIFGTTKYAPKFQGRVTITADDFAGTVYMELSSLRSEDTAMYYCAKHMGYQVRETMDVWGKGTTVTVSS VL: QSVLTQPPSVSAAPGQKVTISCSGSSSNIGNDYVSWYQQLPGTAPKLLIYDNNKRPSGIPDRFSGSKSGTSATLGITGLQTGDEANYYCATWDRRPTAYVVFGGGTKLTVLG	216	–	–	–	–	–
CR6261 (antibody, V domains shown) VH: EVQLVESGAEVKKPGSSVKVSCKASGGPFRSYAISWVRQAPGQGPEWMGGIIPIFGTTKYAPKFQGRVTITADDFAGTVYMELSSLRSEDTAMYYCAKHMGYQVRETMDVWGKGTTVTVSS VL: QSVLTQPPSVSAAPGQKVTISCSGSSSNIGNDYVSWYQQLPGTAPKLLIYDNNKRPSGIPDRFSGSKSGTSATLGITGLQTGDEANYYCATWDRRPTAYVVFGGGTKLTVLG	–	587000	625000	572000	475000	0.5
